Laboratory results taken from PMC12906810, “ZmMYB127 Modulates Maize Kernel Texture and Size by Integrating the Synthesis of Starch, Zein Proteins and Auxin”.

Biological target: ZmMYB127 (Zea mays (inbred B73), UniProt A0A804N6V3 1-263)
Test: EMSA; EMSA with LightShift Chemiluminescent EMSA kit protocol, 25 °C, 30 min, native PAGE; buffer, salt and pH not stated
Settings: protein: recombinant; tags: GST (N-terminal, pGEX-6T); label: biotin (end); blunt

Chain of ZmMYB127 (A0A804N6V3 entry or part of it): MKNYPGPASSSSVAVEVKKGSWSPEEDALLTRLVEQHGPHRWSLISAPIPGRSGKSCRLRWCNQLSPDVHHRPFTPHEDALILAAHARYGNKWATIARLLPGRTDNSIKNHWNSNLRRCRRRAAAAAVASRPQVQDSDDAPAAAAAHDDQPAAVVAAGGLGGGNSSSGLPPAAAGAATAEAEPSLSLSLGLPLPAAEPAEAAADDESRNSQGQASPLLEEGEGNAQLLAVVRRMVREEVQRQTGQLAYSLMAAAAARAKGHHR

B1: Bt1 promoter WT probe (dsDNA)
DNA 1: CACGCGCCGCCATTTCTGTTGCGAATGAGTCCATGG
DNA 2: CCATGGACTCATTCGCAACAGAAATGGCGGCGCGTG
Q: Does B1 bind?
A: binds

B2: Ae1 promoter WT probe (dsDNA)
DNA 1: GAGAATGAAAGCGAACTGTTGCTCACGGACTCTAAG
DNA 2: CTTAGAGTCCGTGAGCAACAGTTCGCTTTCATTCTC
Q: Does B2 bind?
A: binds

B3: z1C1 promoter WT probe (dsDNA)
DNA 1: TCTACTAAGCTTGTTCAACCACGAGAAGAATATTAG
DNA 2: CTAATATTCTTCTCGTGGTTGAACAAGCTTAGTAGA
Q: Does B3 bind?
A: binds

B4: z1D2 promoter WT probe (dsDNA)
DNA 1: GTTGAAATTGATTGATATCCACAAATTTTGTTAA
DNA 2: TTAACAAAATTTGTGGATATCAATCAATTTCAAC
Q: Does B4 bind?
A: binds
